# Laboratory results published in US20070218502A1 (Scripps Research, published 2007).
# Ends that are not written are not given here.
# T1: human high affinity IgE receptor (FcεRI) α-chain with the NOVA-2 peptide tag at the C-terminus, expressed in … (human, UniProt P12319 26-257)
# T1 construct: whole, on cells; Retained in the endoplasmic reticulum membrane of the cells; also called peptide-tagged FcεRI α-chain; NOVA2-tagged α-chain
# T1 sequence: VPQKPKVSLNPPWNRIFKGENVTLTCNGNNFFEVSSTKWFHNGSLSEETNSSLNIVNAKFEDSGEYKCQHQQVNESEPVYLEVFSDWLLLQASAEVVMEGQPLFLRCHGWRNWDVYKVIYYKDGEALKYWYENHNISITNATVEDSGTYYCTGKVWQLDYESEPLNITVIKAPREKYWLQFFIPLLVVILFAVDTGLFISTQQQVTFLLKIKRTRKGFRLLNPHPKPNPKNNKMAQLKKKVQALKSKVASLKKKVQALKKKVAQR
# T2: peptide tag (SEQ ID NO:16), unlabeled synthetic peptide (C-terminal amide)
# T2 construct: Short peptide tag derived from the leucine zipper of the GCN4 transcription factor; also called protein tag peptide; unlabeled peptide
# T2 peptide: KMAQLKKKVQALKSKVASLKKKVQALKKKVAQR
# Tests used:
# [1] = biological target: T1, human high affinity IgE receptor …; assay: fluorescence imaging in live Cos-7 cells after microinjection
# [2] = biological target: T3, cdc42-GTPγS (recombinant 6His-tagged cdc42 loaded with GTPγS) (UniProt P60953 1-191, limits assumed); assay: fluorescence of dye-labeled CBD in solution
# T3 construct: not shown: 6His tag
# [3] = biological target: T4, RhoA-GTPγS (recombinant 6His-tagged RhoA pre-equilibrated with GTPγS) (UniProt P61586 1-193, limits assumed); assay: fluorescence of mero-CBD in solution
# T4 construct: not shown: 6His tag
# [4] = biological target: T3, cdc42-GTPγS (recombinant 6His-tagged …); assay: fluorescence of mero-CBD with saturating cdc42-GTPγS
# [5] = biological target: T2, peptide tag (SEQ ID NO:16), unlabeled …; assay: equilibrium fluorescence anisotropy titration, 12.52 nM labeled peptide, 0.1x PBS, 25° C., 1:1 binding fit
# [6] = biological target: T2, peptide tag (SEQ ID NO:16), unlabeled …; assay: equilibrium fluorescence titration
# T3 sequence (P60953 whole entry): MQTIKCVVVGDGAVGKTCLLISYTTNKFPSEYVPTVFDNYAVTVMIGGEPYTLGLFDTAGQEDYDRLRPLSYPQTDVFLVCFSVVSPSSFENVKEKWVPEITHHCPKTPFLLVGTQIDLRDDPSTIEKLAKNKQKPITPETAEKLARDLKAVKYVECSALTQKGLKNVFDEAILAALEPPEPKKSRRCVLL
# T4 sequence (P61586 whole entry): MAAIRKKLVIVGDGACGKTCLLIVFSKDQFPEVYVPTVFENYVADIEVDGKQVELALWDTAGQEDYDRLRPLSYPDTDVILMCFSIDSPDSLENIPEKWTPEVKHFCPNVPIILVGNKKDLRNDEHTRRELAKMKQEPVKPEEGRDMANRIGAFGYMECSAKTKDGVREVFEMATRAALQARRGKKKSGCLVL
binder,measurement,setting,value
"CEMAQLEKEVQALESEVASLEKEVQALEKEVAQR-NH2 (also: tetramethylrhodamine on Lys stated as position 21, which does not match a Lys in the given chain, also called rhodamine peptide biosensor; rhodamine-peptide)",binding result,[1],binds
"mero-CBD-F271C conjugate (Cdc42-binding fragment of human WASP, amino acids 201 to 321, F271C, labeled with merocyanine dye) (other, merocyanine dye of FIG. 11 on Cys 271 (WASP numbering), that entry has 120 residues and ends at WASP 320; also called CBD-A4C; CBD biosensor; not shown: C-terminal 6His tag from pET23a) DIQNPDITSSRYRGLPAPGPSPADKKRSGKKKISKADIGAPSGFKHVSHVGWDPQNGFDVNNLDPDLRSLCSRAGISEAQLTDAETSKLIYDFIEDQGGLEAVRQEMRRQEPLPPPPPPSR",fold fluorescence change on binding,[2],~3.5 fold
same,binding result,[3],no binding
same,fold increase in excitation and emission maxima,[4],~3.5 fold
"YGRKKRRNRRRPCEMAQLEKEVQALESEVASLEKEVQALEKEVAQR-NH2 (not fully specified, Peptide derived from the GCN4 leucine zipper; also called labeled peptide; TMRPep)",Kd,[5],5.4 nM
same,Kd,[6],5 nM
